Measurements taken from publication PMC11263360, “The structural basis of the activation and inhibition of DSR2 NADase by phage proteins” (Nature Communications, 2024).
Positions count from the first letter of the chain named. In names and notes the source's numbering stands.

B1: DSAD1 from SPbeta phage (co-expressed with DSR2) (natural protein, UniProt Q796A8 1-120, looked up)
chain: MIEIFKDTGATHDLVYHSKINTFVWDVEFDIVLSDSKELNKCYFVKCFNPYRINGKCDFAVSSIDIFSEGKRLLIENEFNFKITKAVHVATSKDVTEIVLHLSERISSPFPIVKEVVYLD
notes: DSAD1, SPbeta phage, WP_004399562, full length; source: E. coli BL21 (DE3), co-expressed with DSR2, complex co-purified (as apo DSR2: Ni-NTA, size exclusion)
B2: DSR2 from Bacillus subtilis 29 R, wild type (enzyme, UniProt P0DXN8 1-1005, looked up)
chain: MVKVDLESKRYGEKLKEVFLMLDNNVVECIKEITESSRNGKLVFFVGAGVSTLSDYPQWWRLVDKYHEELYGSPKKGNYSSDEYLRIPQIFYNVKGEMAFDGILKDFFQVDKPTNPIHDKILAMNPAHVITTNYDNLIDTACWKRGKYFSVISAEEDVANATSSRYLLKVHGDFRKGFKGENVVLKEDDYLNYDQNYPLISNLMKTIIATHTIVFIGYGLGDYNINMLLNWVRKLQKDSFHKPFFIRTDPSPIENETLIYYENKGLRIIDAASLIDSNEYDYLERYSAVMDLLIESQENKFITKDDEVIDYIYGKISPLFALQYIRKIDLKHVFEYDYHFEVNGTVVRHKNKGFGYMERFFELKESCDERSKLSKKQYERFNALFNFFEKNGVICMAKDAGTLNTSIEINSLAYHGKYDVMKKFIEEQSVSIEDDYKKAFFLACLGRWEESYDLYSNIILNSIDESNGCVYYLSQINRYRIYQSITQAVTQFNGLGLLTFGRHYKPFTDEFLARIEREMTNFNIDDLFNGMPFEFQKKYKILEFLSDNQFLYDDTVKLFELTNKVRSEMSEGSYSFGMSSDIVVLLRLYDNLRFLYENCLWSVSFHEFHQYIRNSMSLLIEKAEYERTRDIDELGFSFFGKKSGFFMEYYDFVNISRHFKIDDIKNLERSCSIDKIRFGEQEKIEEYLVGIAEEITKQFSANGMNVVFYTQFISEAKAALYFAKYVKLSEEGLGKIVKALLFYFPERDLDIGKRYVWLERLTKCNELPKSIISIIDDFLVLQAEKHIDQNYSEVSSNGLYSRDYGALIKHFEKNFISKRLSEITLCLTQDKQKQIDFLFKLLPLLSTNAKSHLLSFKSVENINDLMNGIRIGLIDEFTPEHEELIIEYLETRKVNYIVEKEKGIQTFSSNDYMSTFGIWYFLEEINNSKMEEFIGMDDQYDFFVDPENFDYKKFIPSWLKNYNDKLLGKIAGNKHMKHHVIEVLKERVKNSNDKRYLEILMNYFI
notes: DSR2, Sir2 domain-containing NADase, Bacillus subtilis 29 R, WP_029317421, full length (domains described over residues 1-1005); Cloned into pRSF-32M or pET-32M.3C (both add N-terminal thioredoxin and 6xHis); Crosslinked with BS3 for part of the cryo-EM data; also called WT DSR2; wild-type (WT) DSR2; source: E. coli BL21 (DE3), purified (Ni-NTA, size exclusion); for the DSR2-DSAD1 complex …
B3: DSR2 Y260E mutant (enzyme, Bacillus subtilis 29 R, UniProt P0DXN8 1-1005, looked up)
chain: B2 chain with Y260E
notes: DSR2, Bacillus subtilis 29 R, WP_029317421, full length, with Y260E; AUC mass 215 kDa against 425 kDa for the wild type; source: E. coli BL21 (DE3), purified
B4: DSR2 (H171A) catalytically inactive mutant (enzyme, Bacillus subtilis 29 R, UniProt P0DXN8 1-1005, looked up)
chain: B2 chain with H171A
notes: DSR2, Bacillus subtilis 29 R, WP_029317421, full length, with H171A; Crosslinked with 1 mM BS3 before cryo-EM; source: E. coli BL21 (DE3), purified (Ni-NTA, size exclusion)
B5: tail tube protein (TTP) from SPR phage (natural protein, UniProt A0AAE9G628 1-264, looked up)
chain: MKTVIQDTADVYFKRKSDGKLVFTAEAQTASFSQAISEEKLRGGIGNKPLYILKSEKEINLTVKNAFFDLEWLAMTQGETIQEETKVKVFDREHGLIVDDTNKVTLKGKPVSDVTFYNKKGLTYKIAVSTDGTYTIPTAFAAAKDKLTAVYQIEKVGRRLAIKASKFSERYEVEYRTIAYNPDTEEVYSDIYIQFPNVSPSGEFEMSLENGNALAPEIKFEALADTDTDEMAVVIEASRDENTAAPVEDTTGSTQSSDLGGTTE
notes: tail tube protein (TTP), SPR phage, WP_010328117, full length; Residues 80-167 have no density in the cryo-EM map; source: E. coli BL21 (DE3), purified (Ni-NTA, size exclusion)

How the values were obtained:
[1] = target: B2; assay: cryo-EM structure; DSR2-DSAD1 complex co-expressed in E. coli and co-purified; uncrosslinked and BS3-crosslinked samples; settings: both partners purified
[2] = target: the molecule itself; assay: as above
[3] = target: the molecule itself; assay: AUC; sedimentation velocity, 12 °C, 0.8 mg/ml, 20 mM Tris-HCl pH 7.5, 100 mM NaCl, 1 mM DTT; SEDFIT
[4] = target: the molecule itself; assay: cryo-EM structure; DSR2 (H171A) alone, crosslinked with 1 mM BS3 in the presence of NAD+; 20 mM HEPES pH 7.5, 100 mM NaCl, 0.5 mM TCEP
[5] = target: B4; assay: cryo-EM structure; purified DSR2 (H171A)-TTP complex, crosslinked with 1 mM BS3, with 1 mM NAD+; 20 mM HEPES pH 7.5, 100 mM NaCl, 0.5 mM TCEP; settings: both partners purified

Binder: B1
- stoichiometry N [1]: 0.5 DSAD1 per DSR2 (2:4)

Binder: B2
- stoichiometry N [2]: 4

Binder: B3
- binding result [3]: binds

Binder: B4
- stoichiometry N [4]: 4

Binder: B5
- stoichiometry N [5]: 0.5 TTP per DSR2 (2:4)
